From the nanobody polyreactivity screen of Harvey et al. (2022)

Test: yeast display, Sf9 membrane polyspecificity reagent, FACS + sequencing; frameworks hold sequencing errors
Outline: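 Using colony PCR, genes from sorted yeast display clones were amplified, then sequenced on MiSeq at 2 × 250 and filtered by CDR length. The clones had been stained with 10% biotinylated, detergent-solubilized Sf9 membrane reagent for 1 hour at 4 °C and sorted by FACS into low and high (top ~1%) gates on anti-HA and streptavidin fluorescence. Polyreactivity labels come from the gate of origin.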

Sequence: QVQLVESGGGIVQAGGSLRLSCAASGSTLDYHDMGWYRQAPGKEREFVAAIRSNDGSTYYADSVKGRFTISLDNAKNTVYLQMNSLKPEDTAVYYCNKDVWDGYDWPEFDYWGQGTQVTVSS
- polyreactivity (PSR sort gate): low polyreactivity

Sequence: QVQVVESGGGLVQAGGSLRLSCAASGRILYPYTMGWYRQAPGKERELVAAISYSGGRTYYADSVKGRFTISRDNAKNTVYLQMNRLKPEDTAVYYFNAVFRVRGASQFDYWGQGTQVTVSS
- polyreactivity (PSR sort gate): high polyreactivity

Sequence: QVQLVESGGGLVQAGGSLRLSCAASGSIFVGNAMGWSRQAPGKERELVATISRGARRKYADSVKGRFTISRDNAKNTVYLQMNSLIPEDTAVYYCNKVTSYYVFYTPYYSWGQGTQVTVSS
- polyreactivity (PSR sort gate): low polyreactivity

Sequence: QDQLVESGGGLVQAGGSLRLSCAASGITFYGYAMGWYRQAPGKERELVAAISESGGSTYYADSVKGRFTISRDNAKNTVYLQMNSLKPEDTAVYYCAAQGYSVYCYSNYWGQGTQVTVSS
- polyreactivity (PSR sort gate): low polyreactivity

Sequence: QVQLVESGGGLVQAGGSLRLSCAASGFIFSSNAMGWYRQAPGKERELVATISFSGESTYYADSVKGRFTISRDNAKNTVYLQMNSLKPEDTAVYYCARRTYYRWYKYGYYDYNYWRQGTQVTVSS
- polyreactivity (PSR sort gate): low polyreactivity

Sequence: QVQLVESGGGLVQAGGSLRLSCAASGRTFKIYAMGWYRQAPGKERELVAAIRRSGGNTYYADSVKGRFTISRDNAKNTVYLQMNSLKPEDTAVYYCATRGYPGGYQRSQSMYYWGQGTQVTVSS
- polyreactivity (PSR sort gate): high polyreactivity

Sequence: QVQLVESGGGLVQAGGSLRLICAASGRTFVANTMGWYRQAPGKERELVATITWNGGSTYYADSVKGRFTISRDNAKNTVYLQMNSLKPEDTAVYYCAKEAYFRRYYVYRYGYWGQGTQVTVSS
- polyreactivity (PSR sort gate): high polyreactivity

Sequence: QVQLVESGGGLVQAGGSLRLSCAASGSTFYYYAMGWSRQAPGKERELVAGITWSGGRTYYADSVKGRFTISRDNAKNTVYLQMNSLKTEDTAVYYCAASLYTWTYQPVYYRDGYWGQGTQVTVSS
- polyreactivity (PSR sort gate): low polyreactivity

Sequence: QVQLVESGGGLVQAGGSLRLSCAASGSIFLTYAMGWYRQAPGKESELVAAISSGDSTNYTDSVKGRFTISRDNAKNTVYLQMNSLKPEDTAVYYCAADLTYTMDHWGQGTQVTVSS
- polyreactivity (PSR sort gate): low polyreactivity

Sequence: QVQLVESGGGLVQAGGSLRLSCAASGGIFRGYAMGWYRQAPGKERELVAAITKRGGRTYYADSVKGRFTISRDNAKNTVYLQMNSLNPEDTAVFYCAADYYAAYHLPDLDYDYWGQGTQVTVSS
- polyreactivity (PSR sort gate): high polyreactivity

Sequence: QVQLVESGGGLVQAGGSLRLSCAASGSTFGFYAMGWYRQAPGKEREFVAAITWSGGRTNYADSVKGRFTISRDNAKNTVYLQMNSLKPEDTAVYYCAAEGFVTWYRQGQVYYWGQGTQVTVSS
- polyreactivity (PSR sort gate): high polyreactivity

Sequence: QVQLVESGGGLVQAGGSLRLSCAASGNIFVTYAMGWYRQAPGKERELVAGITSSDDSTYYADSVKGRFTISRDNAKNTVYLQMNSLKPEDPAVYYCATYYWEVGIGQYYYWGQGTQVTVSS
- polyreactivity (PSR sort gate): low polyreactivity

Sequence: QDQLVESGGGLVQAGGSLRLSCAASGITFRWYAMGWYRQAPGKERELVAAITSVDSTDYADSVKGRFTISRDNAKNTVYLQMNSLKPEDTAVYYCAARIGTGVLPGRGANSHMDYWGQGTQVTVSS
- polyreactivity (PSR sort gate): low polyreactivity

Sequence: QVQLVESGGGLVQAGGSLRLSSAASGSIFVRNAMGWYRQAPGKERELVAAITSRVGSTYYADSVKGRFTISRDNAKNTVYLQMNSLKPEDTAVYYCAVVFAKRAWSRYDYWGQGTQVTVSS
- polyreactivity (PSR sort gate): high polyreactivity

Sequence: QVQLVESGGGLVQAGGSLRYSCAASGSTSAWYAMGWYRQAPGKERELVAAITESGGDTYYADSVKGRFTISRDNAKNTVYLQMNSLKPEDTAVYYCNARGSARKSVPYPLEYWGQGTQVTVSS
- polyreactivity (PSR sort gate): high polyreactivity

Sequence: QVQLVESGGGLVQAGGSLRLSCAASGFTFNYYVMGWYRQAPGKEREMVSAISRGGGSTYYADSVKGRFTISRDNAKNTVYLQMNSLKPEDTEVYYCAARPYSYLFFYWGQGTQVTVSS
- polyreactivity (PSR sort gate): high polyreactivity

Sequence: QVQLVESGGGLVQAGGSLRLSCAASGIIFYRYVMGWYRQAHGKERELVAAINNDGASTHYADSVKGRFTISRDNAKNTVYLQMNSLKPEDTAVYYCATRDSLYYRYWSNNYWGQGTQVTVSS
- polyreactivity (PSR sort gate): high polyreactivity
